Reference: paper PMC11047093
Residue numbers refer to the chain shown, from its start.

B1: A-tract (poly-A) motif (ssDNA)
DNA: TCTCAAGAAAAAAAAAAAAAGAC
B2: SP/KLF motif (ssDNA)
DNA: GGCGGCGCGGCCCCGCCCCCTCCTCCGGC

How the values were obtained:
[1] = biological target: T1, His-APOBEC2 E100A (Mus musculus, UniProt Q9WV35 1-224, E100A); experiment: MST
T1 sequence: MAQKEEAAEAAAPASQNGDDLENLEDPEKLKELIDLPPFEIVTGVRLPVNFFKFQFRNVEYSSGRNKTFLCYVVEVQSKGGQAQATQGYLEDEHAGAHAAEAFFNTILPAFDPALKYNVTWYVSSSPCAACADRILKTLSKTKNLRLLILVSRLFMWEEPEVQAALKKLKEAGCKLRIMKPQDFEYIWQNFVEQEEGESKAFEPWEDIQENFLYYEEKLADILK

[2] = biological target: T2, His-APOBEC2 (Mus musculus, UniProt Q9WV35 1-224); experiment: MST
T2 sequence: T1 sequence with A100E

| Binder | binding result [1] | Kd [2] [nM] |
| --- | --- | --- |
| B1 | no binding |  |
| B2 | no binding | 926 ± 243 |
